Laboratory results published in EP0956864A1, “TISSUE FIBROSIS INHIBITOR” (KYOWA HAKKO KOGYO CO., LTD., priority 1996, dated 1998).

Tests used:
[1] = Arginase activity assay (Garganta and Bond); type: biochemical; conditions: purified preparation
Experimental: The elution of protein was monitored by measuring absorbance at 280 nm. Effluents were collected by a fraction collector and each fraction was estimated according to the method of measuring arginase activity as reported by Garganta and Bond: Analytical Biochemistry, 154, 388 (1986).
The SP-Sepharose human arginase fraction contained 1360 mg of proteins and the purity of human arginase was 90% or higher. […] The amount of proteins herein means the value calculated as bovine serum albumin using BIO-RAD protein assay kit.

[2] = Arginine concentration in blood (plasma) after administration to rats; type: in vivo, SD rats; conditions: 0.5 ml of 200 µg/ml per rat into penis veniplex; 1, 3, 6, 24 hours and 1 to 14 days
Experimental: 2. Kinetics of PEG modified rat arginase in rat blood
Male SD rats (body weight of 220 to 240 G) were purchased from Nippon SLC and tested after about 1 week breeding. […] After inhalation anesthesia with diethyl ether, each sample was administered to penis veniplex at a dose of 0.5 ml per rat by means of a disposable plastic syringe (Terumo).
To determine the change with the passage of time, the blood was taken from the same individual at 1, 3, 6 and 24 hours or 1, 3, 7, 10 and 14 days. The animals were bled from the tail veins at 0.3 ml per animal by a method that causes a minimum effect on the animals. Each rat was fixed in a retaining trap (Natsume Seisakusho) so that it could move only the tail freely, and a disposable injection needle (Terumo, 23x1" ) was cut at the part connecting to the syringe and inserted into the tail vein. The vein blood dripped from the cut end was received in a sample tube (Eppendorph, volume of 1.5 ml) containing 10 µl of 5% EDTA.2K solution as an anticoagulant. After slightly shaking to confirm the absence of coagulation, the blood was centrifuged at 3,000 rpm for 10 minutes to yield plasma. The plasma sample was freezed and stored at -80°C until analysis. Prior to use, the sample was thawed and centrifuged at 3,000 rpm for 10 minutes to remove insoluble matters. […]

Rat2 cells = test: Cell growth inhibiting activity in rat fibroblast cell line Rat2 (MTT method); type: cell-based; conditions: 1.5 µg/ml; compared with LP6 to LP10
Experimental: The assay of growth inhibiting activity using the rat fetal fibroblast as above mentioned has an insufficient sensitivity and needs complicated operations; therefore, a higher sensitive assay of the growth inhibiting activity using rat fibroblasts, Rat2 cells, was established. This assay will be described hereinbelow.
Rat fibroblast cell line Rat2 (ATCC CRL-1764) was cultured in Eagle MEM medium containing 10% bovine serum (Science, 130, 432 (1959)) in the presence of 5% carbon dioxide at 37°C.
The number of Rat2 cells can be measured by any method which can be used for quantitative determination of cell growth. […] Procedures for quantitatively determining the number of cells by the MTT method and assaying the cell growth inhibiting activity of a sample will be described herein. […]
Thereafter, PBS containing 1 to 10 mg/ml, preferably 5 mg/ml, of MTT reagent is added at 1 to 100 µl/well, preferably 10 µl/well, and further incubated for 1 to 8 hours, preferably 4 hours. […] The absorbance of the dissolved formazan dye at 540 nm is measured to thereby quantitatively determine the number of cells. […]
The number of Rat2 cells may be measured by any method which can be used to determine cell growth in a quantitative manner. The number of cells was quantitatively determined by the MTT method herein to measure the cell growth inhibiting activity in the liver perfusates LP6 to LP10. […]

B1: PEG modified rat arginase: recombinant rat arginase modified with methoxy polyethylene glycol propionic acid N-hydroxysuccinimide ester, average molecular weight about 5,000 (conjugate, UniProt P07824 1-323, looked up)
Arginase-1: MSSKPKPIEIIGAPFSKGQPRGGVEKGPAALRKAGLVEKLKETEYNVRDHGDLAFVDVPNDSPFQIVKNPRSVGKANEQLAAVVAETQKNGTISVVLGGDHSMAIGSISGHARVHPDLCVIWVDAHTDINTPLTTSSGNLHGQPVAFLLKELKGKFPDVPGFSWVTPCISAKDIVYIGLRDVDPGEHYIIKTLGIKYFSMTEVDKLGIGKVMEETFSYLLGRKKRPIHLSFDVDGLDPVFTPATGTPVVGGLSYREGLYITEEIYKTGLLSGLDIMEVNPTLGKTPEEVTRTVNTAVALTLSCFGTKREGNHKPETDYLKPPK
modifications: methoxy PEG 5000 conjugated
[1]
  arginase activity: 2358 U/ml
[2]
  arginine concentration in blood: Sustained inhibiting effects
Rat2 cells
  rat fibroblast Rat-2 growth inhibiting activity: identical with that obtained when 1.25% LP6 to LP10 were added
